Test results published in paper doi:10.1101/2020.09.15.297887.

Molecular target: PARP1 (UniProt P09874 1-1014)
Assay: fluorescence polarization

Chain of PARP1 (P09874 whole entry): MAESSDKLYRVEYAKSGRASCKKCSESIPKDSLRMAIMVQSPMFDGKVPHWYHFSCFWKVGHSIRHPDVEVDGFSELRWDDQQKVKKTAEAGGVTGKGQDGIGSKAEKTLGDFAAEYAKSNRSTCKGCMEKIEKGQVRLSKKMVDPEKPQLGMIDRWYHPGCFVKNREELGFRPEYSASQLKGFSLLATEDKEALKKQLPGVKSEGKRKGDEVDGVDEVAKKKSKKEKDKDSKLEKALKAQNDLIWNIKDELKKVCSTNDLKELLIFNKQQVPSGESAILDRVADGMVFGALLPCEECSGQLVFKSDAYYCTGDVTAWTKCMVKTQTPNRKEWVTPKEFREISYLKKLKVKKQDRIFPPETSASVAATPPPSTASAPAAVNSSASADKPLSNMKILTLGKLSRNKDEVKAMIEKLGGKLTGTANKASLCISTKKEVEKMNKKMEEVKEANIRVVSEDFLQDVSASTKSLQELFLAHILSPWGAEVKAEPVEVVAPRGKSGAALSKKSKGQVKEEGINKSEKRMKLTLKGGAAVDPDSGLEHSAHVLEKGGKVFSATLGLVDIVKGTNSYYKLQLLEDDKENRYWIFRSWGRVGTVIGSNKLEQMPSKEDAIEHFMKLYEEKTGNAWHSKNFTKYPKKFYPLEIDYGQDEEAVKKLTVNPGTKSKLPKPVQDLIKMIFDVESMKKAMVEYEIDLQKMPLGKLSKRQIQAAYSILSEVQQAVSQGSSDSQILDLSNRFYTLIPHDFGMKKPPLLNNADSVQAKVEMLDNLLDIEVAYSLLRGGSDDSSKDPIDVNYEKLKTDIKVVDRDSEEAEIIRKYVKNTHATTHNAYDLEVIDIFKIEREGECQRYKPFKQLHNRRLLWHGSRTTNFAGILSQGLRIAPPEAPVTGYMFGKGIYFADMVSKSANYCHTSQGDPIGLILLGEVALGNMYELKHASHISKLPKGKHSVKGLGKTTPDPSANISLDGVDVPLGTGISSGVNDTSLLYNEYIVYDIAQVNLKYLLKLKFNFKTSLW

GCTGAGCTTCTGGTGAAGCTCAGCTCGCGGCAGCTGGTGCTGCCGCGA (structured_DNA, internal fluorescein-dT (iFluorT) at position 8) [DNA dumbbell with single-strand break]
Kd: 71 nM
